Source: PMC11322666

Molecular target: UPF3B (UniProt Q9BZI7)
Test: co-IP of IRE1α S724 mutants
Conditions: reference: wild type; sites S724

## IRE1α (inositol-requiring enzyme-1α) (from UniProt O75460) S724A
  fold change: stronger
